Experiments:
[1] = biological target: T1, individual catalytic domain of human MT1-MMP (MT1-CAT) (human, UniProt P50281, biotin (EZ-Link sulfo-NHS-LC-biotin, 1:20 enzyme-biotin molar ratio) in the Fab binding ELISA only; unlabelled in the competition ELISA and the cleavage assays); assay: ELISA; biotin-labelled MT1-CAT (25 nM) captured on streptavidin-coated wells; Fab 0-8,000 nM in TBS/T-0.5% gelatin, 1 h, ambient temperature; detected with HRP-conjugated goat anti-human Fab; Kd = Fab concentration that bound 50% of MT1-MMP; details: both partners purified
T1 construct: MT1-MMP (MMP-14), human, catalytic domain (CAT); its limits may differ; In functional rows on human cells this molecule stands for cellular full-length MT1-MMP (said in readout); also called MMP-14

[2] = biological target: T1, individual catalytic domain of human …; assay: cell-based or functional assay

binding result [1] | IC50 of inhibition of MT1-CAT (5 nM) cleavage of the Mca-PLGL-Dpa-AR-NH2 peptide (1 uM); Fab 0-5,000 nM [2] [nM] | Kd [1] [nM] | Binder
binds |  |  | 2B5 Fab (Fab, V domains shown, VH CDR-H3; Only CDR-H3 is printed; Same synthetic human Fab library as 3A2 (accompanying manuscript, submitted); source: E. coli, purified from cell lysates (purity >95%)) VH: EVQLVESGGGLVQPGGSLRLSCAASGFNLSYSSMHWVRQAPGKGLEWVASIYPYSGYTYYADSVKGRFTISADTSKNTAYLQMNSLRAEDTAVYYCARIGVNAWAVKMSQRMLATRGSGWYVMDYWGQGTLVTVSS VL: DIQMTQSPSSLSASVGDRVTITCRASQSVSSAVAWYQQKPGKAPKLLIYSASSLYSGVPSRFSGSRSGTDFTLTISSLQPEDFATYYCQQSSSYPYSPITFGQGTKVEIK
 | 8.5 | 2 | DX2400 Fab (Fab, V domains shown, VH CDR-H3; Only CDR-H3 is printed; also called DX2400 Fab fragment; source: cloning, expression and isolation reported earlier [66]) VH: EVQLLESGGGLVQPGGSLRLSCAASGFTFSLYSMNWVRQAPGKGLEWVSSIYSSGGSTLYADSVKGRFTISRDNSKNTLYLQMNSLRAEDTAVYYCARGRAFDIWGQGTMVTVSS VL: DIQMTQSPSSLSASVGDRVTITCRASQSVGTYLNWYQQKPGKAPKLLIYATSNLRSGVPSRFSGSGSGTDFTLTISSLQPEDFATYYCQQSYSIPRFTFGPGTKVDIK
 | > 5000 |  | 3E9 Fab (Fab, V domains shown) VH: EVQLVESGGGLVQPGGSLRLSCAASGFNLYYSSMHWVRQAPGKGLEWVASIYPSYGSTYYADSVKGRFTISADTSKNTAYLQMNSLRAEDTAVYYCARNGRYPGFLKRAHKRLLNFKAYVMDYWGQGTLVTVSS VL: DIQMTQSPSSLSASVGDRVTITCRASQSVSSAVAWYQQKPGKAPKLLIYSASSLYSGVPSRFSGSRSGTDFTLTISSLQPEDFATYYCQQGSWYLITFGQGTKVEIK
 | 18 | 8 | 3A2 Fab (Fab, V domains shown, numbers count on the anti-TDRD3 Fab; From a synthetic human Fab library with 23-27 residue long CDR-H3; selection is described in an accompanying manuscript (submitted); also called 3A2 antibody; 3A2 Fab antibody; source: E. coli, purified from cell lysates (purity >95%)) VH: EVQLVESGGGLVQPGGSLRLSCAASGFNLSSSSMHWVRQAPGKGLEWVASIYPSYSYTYYADSVKGRFTISADTSKNTAYLQMNSLRAEDTAVYYCARVKLQKDKSHQWIRNLVATPYGRYVMDYWGQGTLVTVSS VL: DIQMTQSPSSLSASVGDRVTITCRASQSVSSAVAWYQQKPGKAPKLLIYSASSLYSGVPSRFSGSRSGTDFTLTISSLQPEDFATYYCQQYGYPITFGQGTKVEIK
